# Reference: PMC5992459, “Novel DNA Aptamers that Bind to Mutant Huntingtin and Modify Its Activity”
# Key:
# [1] = molecular target: endogenous huntingtin from HD60i4 NPC (CAG60/18) (Homo sapiens) (UniProt P42858); test: streptavidin pull-down; conditions: NPC lysate; ELISA: 10 mM Tris-HCl pH 8.0, 0.15 M NaCl (TBS), 2 mg/mL BSA block, 1 pmol huntingtin/well, 50 pmol biotin-aptamer, 2 h (RT for coating/blocking); caspase-6 …
# [2] = molecular target: Q78-huntingtin caspase-6 C-terminal fragment (270 kDa) (Homo sapiens, UniProt P42858 585-3142); test: caspase-6 digestion of complex, anti-biotin immunoblot; ELISA: 10 mM Tris-HCl pH 8.0, 0.15 M NaCl (TBS), 2 mg/mL BSA block, 1 pmol huntingtin/well, 50 pmol biotin-aptamer, 2 h (RT for coating/blocking); caspase-6 mapping: aptamer:huntingtin 10:1, 2 h RT, spin column; SLM: 5:1, 2 h RT; conditions: protein: recombinant; label: 5'-biotin; intramolecular G4
# Chain of Q78-huntingtin caspase-6 C-terminal fragment (270 kDa) (P42858 585-3142): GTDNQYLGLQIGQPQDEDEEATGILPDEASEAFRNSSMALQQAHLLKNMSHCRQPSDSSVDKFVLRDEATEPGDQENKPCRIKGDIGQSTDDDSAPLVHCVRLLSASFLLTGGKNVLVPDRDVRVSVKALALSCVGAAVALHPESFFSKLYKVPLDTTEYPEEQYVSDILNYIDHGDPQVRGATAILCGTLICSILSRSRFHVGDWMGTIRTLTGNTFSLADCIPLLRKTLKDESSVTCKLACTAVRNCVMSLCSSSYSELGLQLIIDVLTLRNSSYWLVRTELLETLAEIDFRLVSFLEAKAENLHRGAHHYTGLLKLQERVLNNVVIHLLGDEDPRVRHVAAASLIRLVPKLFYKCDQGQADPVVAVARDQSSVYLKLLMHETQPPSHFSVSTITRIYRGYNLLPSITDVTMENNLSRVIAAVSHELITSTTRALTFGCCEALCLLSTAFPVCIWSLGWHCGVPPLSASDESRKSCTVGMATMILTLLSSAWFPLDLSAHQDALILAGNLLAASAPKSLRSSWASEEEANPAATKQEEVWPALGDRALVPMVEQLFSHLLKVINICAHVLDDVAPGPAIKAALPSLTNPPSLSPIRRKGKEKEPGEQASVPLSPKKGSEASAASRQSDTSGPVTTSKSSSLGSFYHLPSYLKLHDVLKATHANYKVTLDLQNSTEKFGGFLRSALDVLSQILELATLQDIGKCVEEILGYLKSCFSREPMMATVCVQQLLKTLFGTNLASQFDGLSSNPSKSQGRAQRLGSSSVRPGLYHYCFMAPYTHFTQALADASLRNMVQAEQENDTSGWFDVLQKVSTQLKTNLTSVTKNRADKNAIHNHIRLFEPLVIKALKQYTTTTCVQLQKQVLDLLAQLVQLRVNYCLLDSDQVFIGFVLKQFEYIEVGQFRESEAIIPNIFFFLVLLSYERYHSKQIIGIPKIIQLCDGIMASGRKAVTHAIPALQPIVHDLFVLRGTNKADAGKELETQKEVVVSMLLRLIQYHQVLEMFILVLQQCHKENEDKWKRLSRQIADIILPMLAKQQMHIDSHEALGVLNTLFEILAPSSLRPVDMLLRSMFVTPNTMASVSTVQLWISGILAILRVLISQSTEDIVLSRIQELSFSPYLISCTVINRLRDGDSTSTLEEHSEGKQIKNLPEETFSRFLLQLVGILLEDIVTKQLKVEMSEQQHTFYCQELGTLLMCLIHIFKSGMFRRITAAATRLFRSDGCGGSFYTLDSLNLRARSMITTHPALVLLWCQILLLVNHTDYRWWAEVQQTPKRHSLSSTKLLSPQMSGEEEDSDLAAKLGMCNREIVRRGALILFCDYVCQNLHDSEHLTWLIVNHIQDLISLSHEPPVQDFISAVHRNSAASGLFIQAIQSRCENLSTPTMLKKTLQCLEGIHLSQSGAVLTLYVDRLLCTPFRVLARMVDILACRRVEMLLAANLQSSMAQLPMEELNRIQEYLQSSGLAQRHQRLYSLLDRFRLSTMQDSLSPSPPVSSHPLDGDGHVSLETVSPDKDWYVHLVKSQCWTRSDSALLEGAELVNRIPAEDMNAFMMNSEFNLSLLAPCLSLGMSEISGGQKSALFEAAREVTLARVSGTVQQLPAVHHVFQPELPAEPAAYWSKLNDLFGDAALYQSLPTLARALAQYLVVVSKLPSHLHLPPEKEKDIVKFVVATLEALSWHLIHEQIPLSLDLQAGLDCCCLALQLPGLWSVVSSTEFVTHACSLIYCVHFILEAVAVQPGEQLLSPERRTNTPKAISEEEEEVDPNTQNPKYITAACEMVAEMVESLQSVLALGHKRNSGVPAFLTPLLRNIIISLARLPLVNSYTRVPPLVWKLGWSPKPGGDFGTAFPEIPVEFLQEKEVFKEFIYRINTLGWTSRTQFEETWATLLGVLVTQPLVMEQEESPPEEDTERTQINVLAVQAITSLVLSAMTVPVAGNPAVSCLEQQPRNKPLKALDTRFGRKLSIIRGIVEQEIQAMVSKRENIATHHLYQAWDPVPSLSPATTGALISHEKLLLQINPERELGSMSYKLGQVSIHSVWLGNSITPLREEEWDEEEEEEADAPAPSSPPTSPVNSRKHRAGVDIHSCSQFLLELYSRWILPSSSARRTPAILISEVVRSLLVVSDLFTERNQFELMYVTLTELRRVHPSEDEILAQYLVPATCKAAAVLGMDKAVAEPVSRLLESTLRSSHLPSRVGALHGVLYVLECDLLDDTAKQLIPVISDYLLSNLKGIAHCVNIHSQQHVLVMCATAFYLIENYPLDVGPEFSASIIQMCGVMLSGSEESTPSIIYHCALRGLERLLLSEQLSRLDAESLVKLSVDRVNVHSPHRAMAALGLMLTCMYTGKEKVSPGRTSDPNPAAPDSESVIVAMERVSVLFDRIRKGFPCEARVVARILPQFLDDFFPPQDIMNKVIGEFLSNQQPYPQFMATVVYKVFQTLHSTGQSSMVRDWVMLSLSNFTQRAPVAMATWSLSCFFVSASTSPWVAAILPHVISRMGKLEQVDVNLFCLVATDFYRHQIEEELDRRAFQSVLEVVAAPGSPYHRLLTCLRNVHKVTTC
Molecule,binding signal (fold vs HD17m8) [1],binding result [2]
GGGAGGGAGGGAGGGAGGGAGGGAGGGAGGGAGGGA [MS3],3.6,–
GGGAGGGAGGGAGGGAGGGAGGGAGGGAGGGAGGGA (structured_DNA) [MS3],–,binds
TGGGGAGGGGAGGGGCGGGGT (structured_DNA) [MS4],–,binds
AGGGGTGGGGAGGGGAGGGGA (structured_DNA) [MS2],–,binds
AGGGGTGGGGAGGGGTGGGGA (structured_DNA) [MS1],–,binds
